Source: US20260174875A1 (Novo Nordisk A/S, priority 2023, published 2026)
Numbered stars: 1 amine (or outer) side, 2 acyl side, 3 side chain; on linkers, the order of the positions; unused ones are H or OH. Square brackets hold non-standard residues; d marks the D form. Side chains are listed from the residue outwards. * marks the point of attachment. C20 diacid = O=C(O)CCCCCCCCCCCCCCCCCCC(=O)*; γGlu = O=C(O)[C@H](CCC(=O)[*:2])N[*:1]; Chem. 27 = not defined here; AEEA = NCCOCCOCC(=O)O; Aib = CC(C)(N)C(=O)O

T1: human amylin-3(a) receptor (human, UniProt P30988 25-474; O60896 24-148)
T1 sequence (looked up) 1: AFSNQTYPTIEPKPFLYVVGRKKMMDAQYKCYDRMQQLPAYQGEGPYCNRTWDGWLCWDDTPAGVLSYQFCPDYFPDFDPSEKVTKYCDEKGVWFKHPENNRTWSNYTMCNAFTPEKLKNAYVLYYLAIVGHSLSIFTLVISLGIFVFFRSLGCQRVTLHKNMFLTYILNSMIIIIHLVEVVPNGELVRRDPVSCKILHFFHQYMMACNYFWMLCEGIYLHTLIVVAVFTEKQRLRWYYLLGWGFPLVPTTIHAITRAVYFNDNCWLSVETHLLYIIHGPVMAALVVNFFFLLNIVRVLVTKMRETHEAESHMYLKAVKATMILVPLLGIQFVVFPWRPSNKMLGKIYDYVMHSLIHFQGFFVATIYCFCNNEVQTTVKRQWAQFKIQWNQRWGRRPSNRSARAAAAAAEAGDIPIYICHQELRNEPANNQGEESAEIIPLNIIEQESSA
T1 sequence (looked up) 2: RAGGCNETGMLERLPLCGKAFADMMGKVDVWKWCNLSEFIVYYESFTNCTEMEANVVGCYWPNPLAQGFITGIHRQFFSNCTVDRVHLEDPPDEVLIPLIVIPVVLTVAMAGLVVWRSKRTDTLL

T2: human GIP receptor (human, UniProt P48546 22-466)
T2 sequence (looked up): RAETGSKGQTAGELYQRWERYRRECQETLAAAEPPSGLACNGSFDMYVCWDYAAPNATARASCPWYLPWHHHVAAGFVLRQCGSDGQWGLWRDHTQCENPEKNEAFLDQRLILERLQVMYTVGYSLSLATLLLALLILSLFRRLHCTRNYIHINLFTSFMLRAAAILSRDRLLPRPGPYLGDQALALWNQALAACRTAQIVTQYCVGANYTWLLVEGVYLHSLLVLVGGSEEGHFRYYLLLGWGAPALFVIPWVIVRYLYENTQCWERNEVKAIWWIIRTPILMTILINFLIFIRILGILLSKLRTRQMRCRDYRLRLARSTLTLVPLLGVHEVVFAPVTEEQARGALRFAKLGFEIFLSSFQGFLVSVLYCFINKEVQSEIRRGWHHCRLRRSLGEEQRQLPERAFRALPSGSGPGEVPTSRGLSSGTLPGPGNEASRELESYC


Assays:
[1] = Chemical stability assessment in formulation (UPLC-UV-MS purity loss at 37° C.); format: physicochemical; details: 8 mM phosphate buffer pH 7.4, 1 mg/mL, 2 weeks
How it was run: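 Degradation tracked by UPLC-UV-MS (formic acid/acetonitrile gradient) on samples drawn over 2 weeks at 37° C. Solutions were made at a 1 mg/mL target in 8 mM phosphate, pH 7.4, kept in sealed vials and frozen after sampling.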

[2] = Pharmacokinetic study in minipigs (i.v.); format: in vivo, Göttingen minipigs; details: i.v. administration to minipigs, 2 nmol/kg
Method: This is done in a pharmacokinetic (PK) study, where the terminal half-life (t1/2) of the compound or derivative in question is determined. By terminal half-life is meant the time it takes to halve a certain plasma concentration in the terminal elimination phase.
Female Göttingen minipigs, obtained from Ellegaard Göttingen Minipigs (Dalmose, Denmark), approximately 8-12 months of age and weighing approximately 20-30 kg were used in the studies.
After three weeks of acclimatisation two permanent central venous catheters were implanted in vena cava caudalis in each animal. The animals were allowed at least 10 days recovery after the surgery and were then used for repeated pharmacokinetic studies with a suitable wash-out period between successive dosing.
The compounds of the invention were formulated (40 nmol/ml) in the following vehicle: 8 mM phosphate; 250 mM glycerol; 0.007% polysorbate 20, pH 7.4.
Blood samples (for example 1.3 ml) were collected in EDTA (1.3 ml tube containing K3EDTA to yield 1.6 mg K3EDTA/ml blood) coated tubes and then centrifuged at 4° C. and 2000×g for 10 minutes.
Plasma was within 30 min after centrifugation pipetted into Micronic tubes stored on dry ice and were afterwards kept at −20° C. until analysed for plasma concentration of the compounds using LCMS.
Plasma concentrations of the peptides of the invention were assayed by plasma protein precipitation and analysed by liquid chromatography mass spectrometry (LC-MS). Calibrators were prepared by spiking blank plasma from minipigs with the compounds in the typical range from 0.05 to 200 nM. […] The supernatant was diluted with 1 volumes of Milli-Q water containing 1% Formic acid before injection on the LC-MS system. Individual plasma concentration-time profiles were analysed by a non-compartmental pharmacokinetic method (NCA) in Phoenix v. 6.4 (Pharsight Inc., Mountain View, CA, USA), and the resulting terminal half-lives (harmonic mean) determined. The LC-MS analysis was carried out using a TurboFlow HPLC system from Thermo Fisher Scientific (Bremen, Germany) coupled to either a Q Exactive Orbitrap or Altis Triple Quadrupole (TQ) Mass Spectrometer. […] The Orbitrap mass spectrometer were operating in positive ionization mode with a spray voltage of 4.0 kV using Parallel Reaction Monitoring scan mode using 5 m/z isolation windows on the most abundant charge state of the compounds with a resolution of 35K on the Orbitrap MS.
The data was processed using the Quan Browser in the Xcalibur software from Thermo Fisher Scientific (Bremen, Germany) by fitted the data to linear calibration curves (weighed 1/x^2), used for calculating the concentration in the plasma samples. Quality control samples were included.

[3] = biological target: T1, human amylin-3(a) receptor; experiment: cell-based or functional assay
human GLP-1 receptor [4] = biological target: T3, human GLP-1 receptor (human, UniProt P43220 24-463); experiment: cell-based or functional assay
human GIP receptor [5] = biological target: T2, human GIP receptor; experiment: cell-based or functional assay
[6] = biological target: T1, human amylin-3(a) receptor; experiment: cell-based or functional assay; remark: listed apart in the source
human GLP-1 receptor [7] = biological target: T3, human GLP-1 receptor; experiment: cell-based or functional assay; remark: listed apart in the source
human GIP receptor [8] = biological target: T2, human GIP receptor; experiment: cell-based or functional assay; remark: listed apart in the source

| Purity loss per week at 37° C. [1] | Terminal half-life t1/2 [2] | hAMYR3 Potency, no HSA, EC50 [pM] [3] | hGLP-1R Potency, no HSA, EC50 [pM] (human GLP-1 receptor [4]) | hGIPR Potency, no HSA, EC50 [pM] (human GIP receptor [5]) | hAMYR3 Potency, 1% HSA, EC50 [pM] [6] | hGLP-1R Potency, 1% HSA, EC50 [pM] (human GLP-1 receptor [7]) | hGIPR Potency, 1% HSA, EC50 [pM] (human GIP receptor [8]) | Molecule |
| --- | --- | --- | --- | --- | --- | --- | --- | --- |
|  |  | 7.28 pM | 16.4 pM | 9.57 pM |  |  |  | Compound 210 (also: further groups not given here) peptide: Y[Aib]EGTFTSDYSILLEEQAAREFIEWLLAGGPSSGAGQAPGQAPGASHLSTAQTQRLSAELHKLATLPRTETGSGSP-NH2 |
|  |  |  | 9 pM |  |  |  |  | Compound 217 (also: further groups not given here) peptide: Y[Aib]EGTFTSDYSILLEEIAAREFIEWLLAGGPSSGAGQAPGEAPGASHLSTAQTQRLSAELHKLATLPRTETGSGSP-NH2 |
|  |  | 5 pM |  | 0.5 pM |  |  |  | Compound 219 (also: further groups not given here) peptide: Y[Aib]EGTFTSDYSILLEEIAAREFIEWLLAGGPSSGAGQAPGQAEGASHLSTAQTQRLSAELHKLATLPRTETGSGSP-NH2 |

Further lines, the molecule ahead of its results:

| Molecule | Purity loss per week at 37° C. [1] | Terminal half-life t1/2 [2] | hAMYR3 Potency, no HSA, EC50 [pM] [3] | hGLP-1R Potency, no HSA, EC50 [pM] (human GLP-1 receptor [4]) | hGIPR Potency, no HSA, EC50 [pM] (human GIP receptor [5]) | hAMYR3 Potency, 1% HSA, EC50 [pM] [6] | hGLP-1R Potency, 1% HSA, EC50 [pM] (human GLP-1 receptor [7]) | hGIPR Potency, 1% HSA, EC50 [pM] (human GIP receptor [8]) |
| --- | --- | --- | --- | --- | --- | --- | --- | --- |
| CC[C@H](C)[C@H](NC(=O)[C@H](CCC(=O)O)NC(=O)[C@H](CCC(=O)O)NC(=O)[C@H](CC(C)C)NC(=O)[C@H](CC(C)C)NC(=O)[C@@H](NC(=O)[C@H](CO)NC(=O)[C@H](Cc1ccc(O)cc1)NC(=O)[C@H](CC(=O)O)NC(=O)[C@H](CO)NC(=O)[C@@H](NC(=O)[C@H](Cc1ccccc1)NC(=O)[C@@H](NC(=O)CNC(=O)[C@H](CCC(=O)O)NC(=O)C(C)(C)NC(=O)[C@@H](N)Cc1ccc(O)cc1)[C@@H](C)O)[C@@H](C)O)[C@@H](C)CC)C(=O)N[C@@H](C)C(=O)N[C@@H](C)C(=O)N[C@@H](CCCNC(=N)N)C(=O)N[C@@H](CCC(=O)O)C(=O)N[C@@H](Cc1ccccc1)C(=O)N[C@H](C(=O)N[C@@H](CCC(=O)O)C(=O)N[C@@H](Cc1c[nH]c2ccccc12)C(=O)N[C@@H](CC(C)C)C(=O)N[C@@H](CC(C)C)C(=O)N[C@@H](C)C(=O)NCC(=O)NCC(=O)N1CCC[C@H]1C(=O)N[C@@H](CO)C(=O)N[C@@H](CO)C(=O)NCC(=O)N[C@@H](C)C(=O)NCC(=O)N[C@@H](CCC(N)=O)C(=O)N[C@@H](C)C(=O)N1CCC[C@H]1C(=O)NCC(=O)N[C@@H](CCC(N)=O)C(=O)N[C@@H](C)C(=O)N1CCC[C@H]1C(=O)N[C@@H](CC(C)C)C(=O)N[C@@H](C)C(=O)N[C@@H](CO)C(=O)N[C@@H](Cc1c[nH]cn1)C(=O)N[C@@H](CC(C)C)C(=O)N[C@@H](CO)C(=O)N[C@H](C(=O)N[C@@H](C)C(=O)N[C@@H](CCC(N)=O)C(=O)N[C@H](C(=O)N[C@@H](CCC(N)=O)C(=O)N[C@@H](CCCNC(=N)N)C(=O)N[C@@H](CC(C)C)C(=O)N[C@@H](CO)C(=O)N[C@@H](C)C(=O)N[C@@H](CCC(=O)O)C(=O)N[C@@H](CC(C)C)C(=O)N[C@@H](Cc1c[nH]cn1)C(=O)N[C@@H](CCCCNC(=O)COCCOCCNC(=O)COCCOCCNC(=O)CC[C@H](NC(=O)CCCCCCCCCCCCCCCCCCC(=O)O)C(=O)O)C(=O)N[C@@H](CC(C)C)C(=O)N[C@@H](C)C(=O)N[C@H](C(=O)N[C@@H](CC(C)C)C(=O)N1CCC[C@H]1C(=O)N[C@@H](CCCNC(=N)N)C(=O)N[C@H](C(=O)N[C@@H](CCC(=O)O)C(=O)N[C@H](C(=O)NCC(=O)N[C@@H](CO)C(=O)NCC(=O)N[C@@H](CO)C(=O)N1CCC[C@H]1C(N)=O)[C@@H](C)O)[C@@H](C)O)[C@@H](C)O)[C@@H](C)O)[C@@H](C)O)[C@@H](C)CC [Compound 125] | 0.5% | 100 h |  |  |  |  |  |  |
| Compound 181 (reading uncertain) peptide: Y[Aib]EGTFTSDYSILLEEIAAREFIEWLLAGGPSSEAGASQLSTAQTQRLSAELHK(Chem. 27)LATLPRTETGSGSP-NH2 |  |  | 8.46 pM | 28.8 pM | 3.25 pM | 1300 pM | 134 pM | 20.1 pM |
| Compound 189 (reading uncertain) peptide: Y[Aib]EGTFTSDYSILLEEIAAREFIEWLLAGGPSSGAGEAPGEAPGASHLSTAQTQRLSAELHK(Chem. 27)LATLPRTETGSGSP-NH2 |  |  | 12.7 pM | 26.9 pM | 3.18 pM | 1210 pM | 81.9 pM | 9.18 pM |
| Compound 183 (reading uncertain) peptide: Y[Aib]EGTFTSDYSK(Chem. 27)LLEEIAAREFIEWLLAGGPSSGAGASELSTAQLGRLSAELHQLATLPRTETGSGSP-NH2 |  |  | 6.2 pM |  | 2 pM | 108 pM | 744 pM | 71.4 pM |
| Compound 115 (peptide) peptide: Y[Aib]EGTFTSDYSILLEEQAAREFIEWLLAGGPSSGAGQAPGQAPGASHLSTAQTQRLSAELHK([AEEA-AEEA-γGlu-C20 diacid])LATLPRTETGSGSP-NH2 |  |  | 7.13 pM | 19.4 pM | 10.3 pM | 551 pM | 92.9 pM | 38.9 pM |
| Compound 176 (reading uncertain) peptide: Y[Aib]EGTFTSDYSILLEEIAAREFIEWLLAGGPSSGAGASELSTAQTQRLSAELHK(Chem. 27)LATLPRTETGSGSP-NH2 |  |  | 11.2 pM | 29.9 pM | 3.66 pM | 798 pM | 178 pM | 23.8 pM |
| Compound 179 (reading uncertain) peptide: Y[Aib]EGTFTSDYSILLEEIAAREFIEWLLAGGPSSGAGASHLSTAQTQRLSAELHK(Chem. 27)LATEPRTETGSGSP-NH2 |  |  | 10 pM | 23.3 pM | 4.36 pM | 1350 pM | 170 pM | 25.5 pM |
